Measurements published in article PMC12974149.

Molecular target: Rabbit skeletal actin, filamentous (F-actin) (rabbit) (UniProt P68135)
Experiment: fluorescence microscopy of purified drebrin on actin filaments

“mouse drebrin isoform E (natural protein)” gave a fraction of actin filaments heavily (>50%) decorated by drebrin of 16%.
